± gives the standard deviation of the averaged measurements.
What follows are sequences tested on ATP (assay: switch fluorescence ratio, 500 uM ATP over buffer (Cy3 cluster intensity, sum of 5 cycles each) (fold (ratio)); higher = stronger signal-on switching upon ATP binding; sequences stand for … in TCGTCGGCAGCGTCAGATGTGTATAAGAGACAGTTTTTTTTTTTTTTTTTTTTTTTTT…TC). Details: aptamer strand: ATP DNA aptamer (quencher-CACCTGGGGGAGTATTGCGGAGGAAGG + anchor), 100 nM annealed; ATP concentration: 500 uM.
How it was run: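 For every switch-domain sequence, the fluorescence ratio is the mean of per-cluster values, each being summed target-cycle Cy3 intensity over summed buffer-cycle Cy3 intensity. Clusters outside 100-1000 RFU were excluded. On a modified Illumina MiSeq flow-cell, the Cy3-labelled switching-strand clusters were annealed to 100 nM quencher-labelled ATP aptamer, imaged in selection buffer and then after 15 min with 500 uM ATP at 22 °C. Five such cycles were run, with NaOH stripping and re-annealing between them.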
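Also: ATP exposure 15 min at 22 °C before imaging.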

CCAGGAACGA was tested. Which switch fluorescence ratio did it give?
Its switch fluorescence ratio is 0.986 ± 0.028.

Which switch fluorescence ratio does the source give for CCAGGATTGG here?
Its switch fluorescence ratio is 1 ± 0.006.

With CCAGGCTGAG as the sequence, how does the switch fluorescence ratio read?
The switch fluorescence ratio was 1.05 ± 0.022.

Which switch fluorescence ratio does the source give for CCAGGGGCGA here?
Its switch fluorescence ratio is 1.75 ± 0.9.

Which switch fluorescence ratio does the source give for CCAGGGGGAC here?
Its switch fluorescence ratio is 1.11 ± 0.018.

CCAGGGGGGA was tested. Which switch fluorescence ratio did it give?
The switch fluorescence ratio was 1.18 ± 0.048.

Which switch fluorescence ratio does the source give for CCAGGGGGGT here?
The switch fluorescence ratio was 1.99 ± 1.4.

Which switch fluorescence ratio does the source give for CCAGGGGGTG here?
The switch fluorescence ratio was 1.53 ± 0.32.

For CCAGGTATAA, which switch fluorescence ratio is on record?
Its switch fluorescence ratio is 1.06 ± 0.041.

Which switch fluorescence ratio does the source give for CCAGGTGGGA here?
Its switch fluorescence ratio is 3.53 ± 1.5.

With CCAGTACCTT as the sequence, how does the switch fluorescence ratio read?
The switch fluorescence ratio was 1.09 ± 0.03.

Which switch fluorescence ratio does the source give for CCAGTAGTTT here?
The switch fluorescence ratio was 1 ± 0.013.

With CCAGTGAGGG as the sequence, how does the switch fluorescence ratio read?
Its switch fluorescence ratio is 0.99 ± 0.026.

CCAGTGTTCT was tested. Which switch fluorescence ratio did it give?
The switch fluorescence ratio was 1.01 ± 0.024.

Which switch fluorescence ratio does the source give for CCAGTTGGCA here?
The switch fluorescence ratio was 1 ± 0.031.

For CCATAAGGGA, which switch fluorescence ratio is on record?
Its switch fluorescence ratio is 1.028 ± 0.0055.

For CCATAGAGAA, which switch fluorescence ratio is on record?
Its switch fluorescence ratio is 1.02 ± 0.043.

How did the switch fluorescence ratio turn out when CCATAGAGAT was run?
The switch fluorescence ratio was 1.025 ± 0.0025.

CCATAGGATA was tested. Which switch fluorescence ratio did it give?
Its switch fluorescence ratio is 1.0259 ± 0.00058.

Which switch fluorescence ratio does the source give for CCATAGTTGC here?
Its switch fluorescence ratio is 1.57 ± 0.086.

For CCATATTGTG, which switch fluorescence ratio is on record?
Its switch fluorescence ratio is 1.02 ± 0.016.

Which switch fluorescence ratio does the source give for CCATATTTTT here?
Its switch fluorescence ratio is 0.985 ± 0.015.

How did the switch fluorescence ratio turn out when CCATCATTCA was run?
The switch fluorescence ratio was 1 ± 0.028.

With CCATGGCGGT as the sequence, how does the switch fluorescence ratio read?
The switch fluorescence ratio was 1.05 ± 0.033.

CCATGGGTGC was tested. Which switch fluorescence ratio did it give?
Its switch fluorescence ratio is 1.34 ± 0.024.

With CCATGGGTGG as the sequence, how does the switch fluorescence ratio read?
Its switch fluorescence ratio is 1.01 ± 0.011.

How did the switch fluorescence ratio turn out when CCATGTCGTA was run?
The switch fluorescence ratio was 0.995 ± 0.016.

Which switch fluorescence ratio does the source give for CCATGTCTGT here?
The switch fluorescence ratio was 0.963 ± 0.015.

For CCATGTGACT, which switch fluorescence ratio is on record?
Its switch fluorescence ratio is 1.034 ± 0.0057.

CCATTAGTAT was tested. Which switch fluorescence ratio did it give?
Its switch fluorescence ratio is 1.057 ± 0.0076.

Which switch fluorescence ratio does the source give for CCATTGGGTA here?
Its switch fluorescence ratio is 1.01 ± 0.036.

CCATTGTCCC was tested. Which switch fluorescence ratio did it give?
Its switch fluorescence ratio is 1.05 ± 0.029.

How did the switch fluorescence ratio turn out when CCATTTATTT was run?
The switch fluorescence ratio was 1.02 ± 0.019.

With CCATTTCTTT as the sequence, how does the switch fluorescence ratio read?
Its switch fluorescence ratio is 1.01 ± 0.067.

For CCATTTGAGG, which switch fluorescence ratio is on record?
The switch fluorescence ratio was 0.987 ± 0.059.

How did the switch fluorescence ratio turn out when CCATTTTGCC was run?
Its switch fluorescence ratio is 0.9878 ± 0.00023.

How did the switch fluorescence ratio turn out when CCATTTTGCG was run?
The switch fluorescence ratio was 1 ± 0.011.

Which switch fluorescence ratio does the source give for CCATTTTTGC here?
The switch fluorescence ratio was 1 ± 0.022.

Which switch fluorescence ratio does the source give for CCCAAACCTG here?
Its switch fluorescence ratio is 1.13 ± 0.068.

CCCAGGAGTT was tested. Which switch fluorescence ratio did it give?
Its switch fluorescence ratio is 1.94 ± 0.16.

Which switch fluorescence ratio does the source give for CCCAGTAGCG here?
Its switch fluorescence ratio is 1.03 ± 0.017.

Which switch fluorescence ratio does the source give for CCCAGTTTTT here?
The switch fluorescence ratio was 1.006 ± 0.0054.

How did the switch fluorescence ratio turn out when CCCATCCCCG was run?
Its switch fluorescence ratio is 1.2 ± 0.084.

How did the switch fluorescence ratio turn out when CCCATGATGG was run?
Its switch fluorescence ratio is 1.01 ± 0.046.

For CCCATGTTAA, which switch fluorescence ratio is on record?
Its switch fluorescence ratio is 0.993 ± 0.018.

For CCCATTTGCT, which switch fluorescence ratio is on record?
The switch fluorescence ratio was 1.02 ± 0.03.

Which switch fluorescence ratio does the source give for CCCCAGTCAA here?
The switch fluorescence ratio was 3.3 ± 0.43.

How did the switch fluorescence ratio turn out when CCCCCACTGG was run?
Its switch fluorescence ratio is 1.1 ± 0.15.

For CCCCGGGGTT, which switch fluorescence ratio is on record?
The switch fluorescence ratio was 1.88 ± 1.2.

CCCCGGGTAA was tested. Which switch fluorescence ratio did it give?
Its switch fluorescence ratio is 1.33 ± 0.012.

For CCCCTTTATT, which switch fluorescence ratio is on record?
The switch fluorescence ratio was 1.01 ± 0.057.

How did the switch fluorescence ratio turn out when CCCGAATATT was run?
The switch fluorescence ratio was 1.06 ± 0.029.

With CCCGGAGTGT as the sequence, how does the switch fluorescence ratio read?
Its switch fluorescence ratio is 1.732 ± 0.0079.

For CCCGGCCCAG, which switch fluorescence ratio is on record?
Its switch fluorescence ratio is 1.05 ± 0.064.

With CCCGGGAGTG as the sequence, how does the switch fluorescence ratio read?
The switch fluorescence ratio was 1.02 ± 0.028.

CCCGGGGGCA was tested. Which switch fluorescence ratio did it give?
Its switch fluorescence ratio is 1.21 ± 0.25.

For CCCGGGTAAG, which switch fluorescence ratio is on record?
Its switch fluorescence ratio is 1.03 ± 0.024.

For CCCGGGTAGT, which switch fluorescence ratio is on record?
The switch fluorescence ratio was 1.12 ± 0.12.

Which switch fluorescence ratio does the source give for CCCGGGTCTG here?
The switch fluorescence ratio was 1.04 ± 0.035.

With CCCGGGTTAT as the sequence, how does the switch fluorescence ratio read?
The switch fluorescence ratio was 0.9942 ± 0.0075.

How did the switch fluorescence ratio turn out when CCCGGTATTG was run?
Its switch fluorescence ratio is 1.017 ± 0.007.

With CCCGGTCGGC as the sequence, how does the switch fluorescence ratio read?
The switch fluorescence ratio was 0.983 ± 0.0038.

CCCTAGGCTT was tested. Which switch fluorescence ratio did it give?
The switch fluorescence ratio was 1.13 ± 0.018.

How did the switch fluorescence ratio turn out when CCCTCGCGGT was run?
Its switch fluorescence ratio is 1.78 ± 0.027.

For CCCTGAATTG, which switch fluorescence ratio is on record?
The switch fluorescence ratio was 0.984 ± 0.053.

CCCTGAGGAT was tested. Which switch fluorescence ratio did it give?
The switch fluorescence ratio was 1.01 ± 0.031.

For CCCTTGGTTA, which switch fluorescence ratio is on record?
The switch fluorescence ratio was 1.03 ± 0.032.

CCCTTGTACG was tested. Which switch fluorescence ratio did it give?
The switch fluorescence ratio was 1.03 ± 0.036.

For CCGAAACTTG, which switch fluorescence ratio is on record?
Its switch fluorescence ratio is 1.07 ± 0.038.

CCGAACGTTT was tested. Which switch fluorescence ratio did it give?
Its switch fluorescence ratio is 2.31 ± 0.47.

Which switch fluorescence ratio does the source give for CCGAAGGGTA here?
The switch fluorescence ratio was 1.1 ± 0.022.

For CCGAATACCA, which switch fluorescence ratio is on record?
The switch fluorescence ratio was 1.61 ± 0.13.

With CCGAGAAGAG as the sequence, how does the switch fluorescence ratio read?
Its switch fluorescence ratio is 1.58 ± 0.021.

For CCGAGCGCTT, which switch fluorescence ratio is on record?
The switch fluorescence ratio was 4.69 ± 1.4.

With CCGAGTATGT as the sequence, how does the switch fluorescence ratio read?
Its switch fluorescence ratio is 1.19 ± 0.034.

With CCGAGTTGTG as the sequence, how does the switch fluorescence ratio read?
The switch fluorescence ratio was 1.05 ± 0.041.

How did the switch fluorescence ratio turn out when CCGATGAGCT was run?
The switch fluorescence ratio was 1.42 ± 0.035.

Which switch fluorescence ratio does the source give for CCGATTTTTA here?
The switch fluorescence ratio was 0.977 ± 0.053.

Which switch fluorescence ratio does the source give for CCGCAGGGTA here?
Its switch fluorescence ratio is 1.259 ± 0.0092.

Which switch fluorescence ratio does the source give for CCGCATGGGG here?
The switch fluorescence ratio was 1.49 ± 0.057.

How did the switch fluorescence ratio turn out when CCGCATTGGG was run?
Its switch fluorescence ratio is 3.35 ± 0.93.

Which switch fluorescence ratio does the source give for CCGCCGAGGT here?
The switch fluorescence ratio was 1.68 ± 0.034.

CCGCGACAAG was tested. Which switch fluorescence ratio did it give?
Its switch fluorescence ratio is 2.18 ± 0.086.

CCGCTAGTGG was tested. Which switch fluorescence ratio did it give?
The switch fluorescence ratio was 1.196 ± 0.0036.

How did the switch fluorescence ratio turn out when CCGCTCGAAT was run?
The switch fluorescence ratio was 3.36 ± 0.38.

With CCGCTCGGGG as the sequence, how does the switch fluorescence ratio read?
Its switch fluorescence ratio is 1.05 ± 0.053.

CCGCTGGATA was tested. Which switch fluorescence ratio did it give?
Its switch fluorescence ratio is 1.51 ± 0.18.

CCGCTGTTTT was tested. Which switch fluorescence ratio did it give?
Its switch fluorescence ratio is 1.16 ± 0.23.

With CCGCTTTTTT as the sequence, how does the switch fluorescence ratio read?
The switch fluorescence ratio was 1.28 ± 0.23.

CCGGAACATG was tested. Which switch fluorescence ratio did it give?
Its switch fluorescence ratio is 1.23 ± 0.058.

How did the switch fluorescence ratio turn out when CCGGACGGAG was run?
Its switch fluorescence ratio is 1.04 ± 0.026.

How did the switch fluorescence ratio turn out when CCGGAGGGGT was run?
The switch fluorescence ratio was 1.38 ± 0.018.

How did the switch fluorescence ratio turn out when CCGGATATGG was run?
The switch fluorescence ratio was 1.135 ± 0.0024.

For CCGGCACCTG, which switch fluorescence ratio is on record?
The switch fluorescence ratio was 1.02 ± 0.025.

CCGGCATCGG was tested. Which switch fluorescence ratio did it give?
The switch fluorescence ratio was 1.02 ± 0.059.

With CCGGCGGAAG as the sequence, how does the switch fluorescence ratio read?
The switch fluorescence ratio was 1.003 ± 0.0011.

How did the switch fluorescence ratio turn out when CCGGCGTGGC was run?
The switch fluorescence ratio was 1.36 ± 0.082.

How did the switch fluorescence ratio turn out when CCGGCTAGTG was run?
The switch fluorescence ratio was 1.03 ± 0.034.

For CCGGCTGAGG, which switch fluorescence ratio is on record?
The switch fluorescence ratio was 1.03 ± 0.017.

How did the switch fluorescence ratio turn out when CCGGCTTTCC was run?
The switch fluorescence ratio was 1.15 ± 0.027.

From the supplement of paper PMC10126150
